# Data from patent US6989256 (UNIVERSITY OF MEDICINE AND DENTISTRY OF NEW JERSEY, dated 2006).
# T1: FLAG epitope-tagged Mtt1p (yeast (S. cerevisiae), UniProt P32644 1-1121, limits assumed)
# T1 construct: Used as a yeast cytoplasmic extract, not as purified protein; also called Flag-Mtt1p; Modulator of Translation Termination
# T1 sequence (looked up): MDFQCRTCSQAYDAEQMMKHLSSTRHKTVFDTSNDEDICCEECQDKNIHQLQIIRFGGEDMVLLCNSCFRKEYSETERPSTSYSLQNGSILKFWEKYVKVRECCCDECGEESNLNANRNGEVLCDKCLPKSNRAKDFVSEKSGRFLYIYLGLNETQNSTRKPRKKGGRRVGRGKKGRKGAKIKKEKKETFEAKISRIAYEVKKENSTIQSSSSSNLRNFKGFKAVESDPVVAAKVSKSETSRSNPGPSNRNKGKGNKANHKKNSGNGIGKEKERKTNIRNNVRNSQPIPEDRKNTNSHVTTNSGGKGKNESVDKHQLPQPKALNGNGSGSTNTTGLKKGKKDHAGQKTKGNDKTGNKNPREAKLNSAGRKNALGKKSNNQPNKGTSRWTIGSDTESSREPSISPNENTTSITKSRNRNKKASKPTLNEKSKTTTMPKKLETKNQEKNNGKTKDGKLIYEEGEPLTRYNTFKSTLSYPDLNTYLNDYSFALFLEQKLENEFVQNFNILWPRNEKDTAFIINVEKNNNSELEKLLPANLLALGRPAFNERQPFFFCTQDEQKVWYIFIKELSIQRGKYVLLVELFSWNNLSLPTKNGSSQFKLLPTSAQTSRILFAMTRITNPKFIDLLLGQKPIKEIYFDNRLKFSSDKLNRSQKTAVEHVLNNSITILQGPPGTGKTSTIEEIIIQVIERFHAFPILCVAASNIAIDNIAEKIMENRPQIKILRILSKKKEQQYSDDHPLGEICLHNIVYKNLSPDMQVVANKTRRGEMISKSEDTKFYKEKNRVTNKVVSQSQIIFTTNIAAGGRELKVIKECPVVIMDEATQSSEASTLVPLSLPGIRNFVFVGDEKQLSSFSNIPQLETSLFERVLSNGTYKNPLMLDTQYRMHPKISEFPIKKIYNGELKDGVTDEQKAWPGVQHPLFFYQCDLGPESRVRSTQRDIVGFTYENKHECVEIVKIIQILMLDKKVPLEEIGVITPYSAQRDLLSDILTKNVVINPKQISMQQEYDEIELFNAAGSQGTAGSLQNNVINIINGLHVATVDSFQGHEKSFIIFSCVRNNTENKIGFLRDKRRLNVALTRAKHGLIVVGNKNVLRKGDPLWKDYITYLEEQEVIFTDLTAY
# Biological target: T1, FLAG epitope-tagged Mtt1p
# Assay: GST pull-down from yeast cytoplasmic extract, anti-FLAG immunoblot
# Method: Total RNA was prepared and subjected to RNA blotting analysis, using a probe for CYH2 mRNA. Figure 4: FIG. 4 Mtt1 interacts withe eRF3. Cytoplasmic extracts from a yeast strain BJ3505 transformed with either pG-1 (vector) or pG-1 FLAGMTT1 (Flag-Mtt1p) were prepared in IBTB and incubated with 30 μl GST, GST-eRF1. GST-eRF3, GST-eRF3NM or GST-eRF3C sepharose-protein complexes. The sepharose-protein complexes were washed 2 times in IBTB (see materials and methods), resuspended in SDS-PAGE loading buffer, separated on an 8% SDS-PAGE gel and immunoblotted using anti-FLAG antibody.
# Since deleting the MTT1 gene also promotes nonsense suppression of the tyr7-1 and leu2-2 alleles, Mtt1p also interacts with the peptidyl release factors. To test this, eRF1 and eRF3 were individually expressed in *E. coli* as glutathione-S-transferase (GST) fusion proteins and purified using glutathione sepharose beads. The purified GST-RF (release factor) fusion proteins associated with the glutathione sepharose beads were added to a yeast cytoplasmic extract containing a FLAG epitope-tagged Mtt1p (see Experimental Procedures). Following incubation, the GST-RFs and associated proteins were purified by affinity chromatography and subjected to SDS-PAGE. Immunoblotting was performed and the presence of the Flag-Mtt1p was assayed using an antibody against the FLAG epitope.
binder,measurement,value
"GST-eRF1 (other, yeast (S. cerevisiae), UniProt P12385 1-437, looked up, also called GST-RF1; GST-RF; not shown: glutathione-S-transferase (GST) from vector pGEX2T) MDNEVEKNIEIWKVKKLVQSLEKARGNGTSMISLVIPPKGQIPLYQKMLTDEYGTASNIKSRVNRLSVLSAITSTQQKLKLYNTLPKNGLVLYCGDIITEDGKEKKVTFDIEPYKPINTSLYLCDNKFHTEVLSELLQADDKFGFIVMDGQGTLFGSVSGNTRTVLHKFTVDLPKKHGRGGQSALRFARLREEKRHNYVRKVAEVAVQNFITNDKVNVKGLILAGSADFKTDLAKSELFDPRLACKVISIVDVSYGGENGFNQAIELSAEALANVKYVQEKKLLEAYFDEISQDTGKFCYGIDDTLKALDLGAVEKLIVFENLETIRYTFKDAEDNEVIKFAEPEAKDKSFAIDKATGQEMDVVSEEPLIEWLAANYKNFGATLEFITDKSSEGAQFVTGFGGIGAMLRYKVNFEQLVDESEDEYYDEDEGSDYDFI",binding result,no binding
